In US20050178959A1, “Methods and compositions for assessing a sample by maldi mass spectrometry” (priority 2004, published 2005):
Non-standard residues stand in square brackets, D forms with d. No end group written: not given here. *: point of attachment. Biotin = O=C1N[C@H]2[C@H](CS[C@H]2CCCCC(=O)*)N1; pT = C[C@@H](OP(=O)(O)O)[C@H](N)C(=O)O; pS = N[C@@H](COP(=O)(O)O)C(=O)O

Columns and labels:
[1] = target: T1, GST-FBP21 (a protein having WW domain); experiment: biotinylated peptide on streptavidin-agarose beads, pull-down, trypsin digest, MALDI-MS, ion m/z1152.8
T1 sequence (O75554 whole entry, species assumed, looked up): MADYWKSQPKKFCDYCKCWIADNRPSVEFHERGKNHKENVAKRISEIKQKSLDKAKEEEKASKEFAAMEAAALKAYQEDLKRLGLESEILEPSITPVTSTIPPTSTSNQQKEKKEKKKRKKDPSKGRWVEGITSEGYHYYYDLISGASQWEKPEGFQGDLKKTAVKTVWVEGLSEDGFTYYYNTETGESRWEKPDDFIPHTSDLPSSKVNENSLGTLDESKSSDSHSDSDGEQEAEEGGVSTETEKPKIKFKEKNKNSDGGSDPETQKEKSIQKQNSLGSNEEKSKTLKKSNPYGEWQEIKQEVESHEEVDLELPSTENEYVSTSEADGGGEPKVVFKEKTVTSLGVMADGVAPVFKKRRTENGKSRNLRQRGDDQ

GST-14-3-3 = experiment: biotinylated peptide on streptavidin-agarose beads, pull-down, trypsin digest, MALDI-MS, ion m/z1245.7
[2] = target: GST-CAP1 (a protein having PDZ domain); experiment: biotinylated peptide on streptavidin-agarose beads, pull-down, trypsin digest, MALDI-MS, ion m/z1358.8
[3] = target: T1, GST-FBP21 (a protein having WW domain); experiment: biotinylated peptide on streptavidin-agarose beads, pull-down, trypsin digest, MALDI-MS, ion m/z1138.7

Row | Binder | signal size [1] | signal size (GST-14-3-3) | signal size [2] | signal size [3]
1 | Biotin-SGSGPRPLRRESEI-OH (SMILES CC[C@H](C)[C@H](NC(=O)[C@H](CCC(=O)O)NC(=O)[C@H](CO)NC(=O)[C@H](CCC(=O)O)NC(=O)[C@H](CCCNC(=N)N)NC(=O)[C@H](CCCNC(=N)N)NC(=O)[C@H](CC(C)C)NC(=O)[C@@H]1CCCN1C(=O)[C@H](CCCNC(=N)N)NC(=O)[C@@H]1CCCN1C(=O)CNC(=O)[C@H](CO)NC(=O)CNC(=O)[C@H](CO)NC(=O)CCCC[C@@H]1SC[C@@H]2NC(=O)N[C@@H]21)C(=O)O) [Kir2.1 biotinylated peptide (Biotin-…-COOH)] | 900 | 400 | 250 | 
2 | Biotin-SGSGVLIKRRS[pT]EL-OH (SMILES CC[C@H](C)[C@H](NC(=O)[C@H](CC(C)C)NC(=O)[C@@H](NC(=O)CNC(=O)[C@H](CO)NC(=O)CNC(=O)[C@H](CO)NC(=O)CCCC[C@@H]1SC[C@@H]2NC(=O)N[C@@H]21)C(C)C)C(=O)N[C@@H](CCCCN)C(=O)N[C@@H](CCCNC(=N)N)C(=O)N[C@@H](CCCNC(=N)N)C(=O)N[C@@H](CO)C(=O)N[C@H](C(=O)N[C@@H](CCC(=O)O)C(=O)N[C@@H](CC(C)C)C(=O)O)[C@@H](C)OP(=O)(O)O) [COXG biotinylated phosphopeptide (Biotin-…*EL-COOH)] |  | 500 |  | 30000
3 | Biotin-SGSGGTPPPPYTVG [WBP1 biotinylated peptide (Biotin-…)] |  |  |  | 9000
4 | Biotin-SGSGVLIKRRSTEL-OH (SMILES CC[C@H](C)[C@H](NC(=O)[C@H](CC(C)C)NC(=O)[C@@H](NC(=O)CNC(=O)[C@H](CO)NC(=O)CNC(=O)[C@H](CO)NC(=O)CCCC[C@@H]1SC[C@@H]2NC(=O)N[C@@H]21)C(C)C)C(=O)N[C@@H](CCCCN)C(=O)N[C@@H](CCCNC(=N)N)C(=O)N[C@@H](CCCNC(=N)N)C(=O)N[C@@H](CO)C(=O)N[C@H](C(=O)N[C@@H](CCC(=O)O)C(=O)N[C@@H](CC(C)C)C(=O)O)[C@@H](C)O) [COXD biotinylated peptide (Biotin-…-COOH)] |  | 3600 | 1100 | 200
5 | Biotin-SGSGEQPL[pT]PVTDL [CDC25 biotinylated phosphopeptide (Biotin-…*PVTDL)] |  |  | 480 | 500
6 | Biotin-SGSGPRPLRRE[pS]EI-OH (SMILES CC[C@H](C)[C@H](NC(=O)[C@H](CCC(=O)O)NC(=O)[C@H](COP(=O)(O)O)NC(=O)[C@H](CCC(=O)O)NC(=O)[C@H](CCCNC(=N)N)NC(=O)[C@H](CCCNC(=N)N)NC(=O)[C@H](CC(C)C)NC(=O)[C@@H]1CCCN1C(=O)[C@H](CCCNC(=N)N)NC(=O)[C@@H]1CCCN1C(=O)CNC(=O)[C@H](CO)NC(=O)CNC(=O)[C@H](CO)NC(=O)CCCC[C@@H]1SC[C@@H]2NC(=O)N[C@@H]21)C(=O)O) [Kir2.1* biotinylated phosphopeptide (Biotin-…*EI-COOH)] | 8000 | 8000 |  | 
